The numbers were not newly measured in patent publication US20080107649A1, “Immunogenic compositions of cyclic peptides derived from the beta-amyloid peptide” (Pevion Biotech Ltd., priority 2004, published 2008), which cites them from elsewhere.

The conditions of this series: human, in vivo.

Consider “Aβ1-42: β-amyloid peptide of 42 amino acids (SEQ ID NO: 1), predominantly found in the plaques”, for which the “side effect of inoculation” value is listed as “severe side effect of cerebral inflammation in some patients”.
